Reference: US20220025010A1 (ANTAG THERAPEUTICS, published 2022)
*1 amine or outer side, *2 acyl side, *3 side chain or, on linkers, in order; H or OH if unused. Where no end group is shown, it is not given here. Side-chain parts run from the residue outwards. [ ]: non-standard residue; d: D form. The star is where a group is joined. C18 diacid = O=C(O)CCCCCCCCCCCCCCCCC(=O)*; C16 diacid = O=C(O)CCCCCCCCCCCCCCC(=O)*; γGlu = O=C(O)[C@H](CCC(=O)[*:2])N[*:1]; pGlu = O=C1CC[C@@H](C(=O)O)N1; AEEA = NCCOCCOCC(=O)O

T1: human GIP receptor (human, UniProt P48546 22-466)
T1 sequence (looked up): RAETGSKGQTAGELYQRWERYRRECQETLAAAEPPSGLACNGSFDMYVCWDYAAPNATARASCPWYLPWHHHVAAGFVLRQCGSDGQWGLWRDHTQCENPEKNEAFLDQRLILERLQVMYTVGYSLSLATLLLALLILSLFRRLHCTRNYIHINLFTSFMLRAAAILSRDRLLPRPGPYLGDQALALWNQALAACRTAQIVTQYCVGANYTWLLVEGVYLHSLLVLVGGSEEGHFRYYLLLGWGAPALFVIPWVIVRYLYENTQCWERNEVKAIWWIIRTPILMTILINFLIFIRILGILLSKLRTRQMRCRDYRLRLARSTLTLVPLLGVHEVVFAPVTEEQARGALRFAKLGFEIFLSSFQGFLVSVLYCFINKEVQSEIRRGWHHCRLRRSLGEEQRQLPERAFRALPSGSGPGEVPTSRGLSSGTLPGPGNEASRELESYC

B1: AT353 (peptide)
peptide: FISDYSIAMDKIK(C16 diacid)QQDFVNWLLAQK-NH2
modifications: N-terminus assumed
SMILES: CC[C@H](C)[C@H](NC(=O)[C@H](CO)NC(=O)[C@H](Cc1ccc(O)cc1)NC(=O)[C@H](CC(=O)O)NC(=O)[C@H](CO)NC(=O)[C@@H](NC(=O)[C@@H](N)Cc1ccccc1)[C@@H](C)CC)C(=O)N[C@@H](C)C(=O)N[C@@H](CCSC)C(=O)N[C@@H](CC(=O)O)C(=O)N[C@@H](CCCCN)C(=O)N[C@H](C(=O)N[C@@H](CCCCNC(=O)CCCCCCCCCCCCCCC(=O)O)C(=O)N[C@@H](CCC(N)=O)C(=O)N[C@@H](CCC(N)=O)C(=O)N[C@@H](CC(=O)O)C(=O)N[C@@H](Cc1ccccc1)C(=O)N[C@H](C(=O)N[C@@H](CC(N)=O)C(=O)N[C@@H](Cc1c[nH]c2ccccc12)C(=O)N[C@@H](CC(C)C)C(=O)N[C@@H](CC(C)C)C(=O)N[C@@H](C)C(=O)N[C@@H](CCC(N)=O)C(=O)N[C@@H](CCCCN)C(N)=O)C(C)C)[C@@H](C)CC
B2: AT392 (peptide)
peptide: SGTFISDYSIAMDRIK(C16 diacid)QQDFVNWLLAQR-NH2
modifications: N-terminus assumed
SMILES: CC[C@H](C)[C@H](NC(=O)[C@H](CO)NC(=O)[C@H](Cc1ccc(O)cc1)NC(=O)[C@H](CC(=O)O)NC(=O)[C@H](CO)NC(=O)[C@@H](NC(=O)[C@H](Cc1ccccc1)NC(=O)[C@@H](NC(=O)CNC(=O)[C@@H](N)CO)[C@@H](C)O)[C@@H](C)CC)C(=O)N[C@@H](C)C(=O)N[C@@H](CCSC)C(=O)N[C@@H](CC(=O)O)C(=O)N[C@@H](CCCNC(=N)N)C(=O)N[C@H](C(=O)N[C@@H](CCCCNC(=O)CCCCCCCCCCCCCCC(=O)O)C(=O)N[C@@H](CCC(N)=O)C(=O)N[C@@H](CCC(N)=O)C(=O)N[C@@H](CC(=O)O)C(=O)N[C@@H](Cc1ccccc1)C(=O)N[C@H](C(=O)N[C@@H](CC(N)=O)C(=O)N[C@@H](Cc1c[nH]c2ccccc12)C(=O)N[C@@H](CC(C)C)C(=O)N[C@@H](CC(C)C)C(=O)N[C@@H](C)C(=O)N[C@@H](CCC(N)=O)C(=O)N[C@@H](CCCNC(=N)N)C(N)=O)C(C)C)[C@@H](C)CC
B3: AT277 (peptide)
peptide: SGTFISDYSIAMDRIK([AEEA-AEEA-γGlu-C16 diacid])QQDFVNWLLAQR-OH
modifications: N-terminus assumed
SMILES: CC[C@H](C)[C@H](NC(=O)[C@H](CO)NC(=O)[C@H](Cc1ccc(O)cc1)NC(=O)[C@H](CC(=O)O)NC(=O)[C@H](CO)NC(=O)[C@@H](NC(=O)[C@H](Cc1ccccc1)NC(=O)[C@@H](NC(=O)CNC(=O)[C@@H](N)CO)[C@@H](C)O)[C@@H](C)CC)C(=O)N[C@@H](C)C(=O)N[C@@H](CCSC)C(=O)N[C@@H](CC(=O)O)C(=O)N[C@@H](CCCNC(=N)N)C(=O)N[C@H](C(=O)N[C@@H](CCCCNC(=O)COCCOCCNC(=O)COCCOCCNC(=O)CC[C@H](NC(=O)CCCCCCCCCCCCCCC(=O)O)C(=O)O)C(=O)N[C@@H](CCC(N)=O)C(=O)N[C@@H](CCC(N)=O)C(=O)N[C@@H](CC(=O)O)C(=O)N[C@@H](Cc1ccccc1)C(=O)N[C@H](C(=O)N[C@@H](CC(N)=O)C(=O)N[C@@H](Cc1c[nH]c2ccccc12)C(=O)N[C@@H](CC(C)C)C(=O)N[C@@H](CC(C)C)C(=O)N[C@@H](C)C(=O)N[C@@H](CCC(N)=O)C(=O)N[C@@H](CCCNC(=N)N)C(=O)O)C(C)C)[C@@H](C)CC
B4: AT357 (peptide)
peptide: YSIAMDKIK(C16 diacid)QQDFVNWLLAQK-NH2
modifications: N-terminus assumed
SMILES: CC[C@H](C)[C@H](NC(=O)[C@H](CO)NC(=O)[C@@H](N)Cc1ccc(O)cc1)C(=O)N[C@@H](C)C(=O)N[C@@H](CCSC)C(=O)N[C@@H](CC(=O)O)C(=O)N[C@@H](CCCCN)C(=O)N[C@H](C(=O)N[C@@H](CCCCNC(=O)CCCCCCCCCCCCCCC(=O)O)C(=O)N[C@@H](CCC(N)=O)C(=O)N[C@@H](CCC(N)=O)C(=O)N[C@@H](CC(=O)O)C(=O)N[C@@H](Cc1ccccc1)C(=O)N[C@H](C(=O)N[C@@H](CC(N)=O)C(=O)N[C@@H](Cc1c[nH]c2ccccc12)C(=O)N[C@@H](CC(C)C)C(=O)N[C@@H](CC(C)C)C(=O)N[C@@H](C)C(=O)N[C@@H](CCC(N)=O)C(=O)N[C@@H](CCCCN)C(N)=O)C(C)C)[C@@H](C)CC

These binders were tested against T1, human GIP receptor (assay: cell-based or functional assay).
For B1, the “CisBio cAMP antagonism % inhib” value was 90%, the “CisBio cAMP antagonism IC50” value was 25.1 nM and the “cAMP antagonism % inhib” value was 100%. The “cAMP antagonism IC50” value was 9 nM. In the case of [pGlu]GTFISDYSIAMDRIK([AEEA-AEEA-AEEA-γGlu-C18 diacid])QQDFVNWLLAQR-NH2 [AT382], the “CisBio cAMP antagonism % inhib” value is reported as 83%, the “CisBio cAMP antagonism IC50” value is reported as 25.1 nM and the “cAMP antagonism % inhib” value is reported as 100%. For the same binder, the “cAMP antagonism IC50” value was 2 nM. In the case of B2, the “CisBio cAMP antagonism % inhib” value is reported as 96%, the “CisBio cAMP antagonism IC50” value is reported as 68.1 nM and the “cAMP antagonism % inhib” value is reported as 93%. For the same binder, the “cAMP antagonism IC50” value was 1 nM. In the case of B3, the “CisBio cAMP antagonism % inhib” value is reported as 84%, the “CisBio cAMP antagonism IC50” value is reported as 31.6 nM and the “cAMP antagonism IC50” value is reported as 16 nM.

Each binder was assayed against GLP1 receptor (UniProt P43220 24-463, limits assumed) (assay: cell-based or functional assay).
With B1 the “cAMP antagonism % inhib” value was 43%, the “cAMP antagonism IC50” value was 169 nM and the cAMP antagonism index was 44. The “cAMP antagonism log IC50” value was -6.8 log M. In the case of B3, the “cAMP antagonism % inhib” value is reported as 68%, the “cAMP antagonism IC50” value is reported as 6100 nM and the cAMP antagonism index is reported as 561. For the same binder, the “cAMP antagonism log IC50” value was -5.2 log M.

Target: T1, human GIP receptor
Assay: cell-based or functional assay
Remark: another data set of the same source
[pGlu]GTFISDYSIAMDRIK([AEEA-AEEA-AEEA-γGlu-C16 diacid])QQDFVNWLLAQR-NH2 [AT380] was tested, and the “cAMP antagonism IC50 (finer than Table 1B)” value was 7.3 nM. For [pGlu]GTFISDYSIAMDRIK(C16 diacid)QQDFVNWLLAQR-NH2 [AT390], the “cAMP antagonism IC50 (finer than Table 1B)” value was 0.8 nM. With [pGlu]GTFISDYSIAMDRIK([AEEA-AEEA-AEEA-γGlu-C18 diacid])QQDFVNWLLAQR-NH2 [AT382] the “cAMP antagonism IC50 (finer than Table 1B)” value was 1.8 nM. In the case of B2, the “cAMP antagonism IC50 (finer than Table 1B)” value is reported as 0.6 nM.

Target: T1, human GIP receptor
Assay: cell-based or functional assay
Remark: another data set of the same source
[pGlu]GTFISDYSIAMDRIK([AEEA-AEEA-AEEA-γGlu-C16 diacid])QQDFVNWLLAQR-NH2 [AT380] was tested, and the “CisBio cAMP agonism % Efficacy” value was 8%, the “CisBio cAMP antagonism % inhib” value was 82% and the “CisBio cAMP antagonism IC50” value was 85.8 nM. The “CisBio cAMP antagonism pIC50” value was 7.1, the “DiscoveRx cAMP antagonism % inhib” value was 100% and the “DiscoveRx cAMP antagonism IC50” value was 7 nM. For the same binder, the “DiscoveRx cAMP antagonism log IC50” value was -8.1 log M. In the case of B1, the “CisBio cAMP agonism % Efficacy” value is reported as 0%, the “CisBio cAMP antagonism % inhib” value is reported as 90% and the “CisBio cAMP antagonism IC50” value is reported as 25.1 nM. For the same binder, the “CisBio cAMP antagonism pIC50” value was 7.6. [pGlu]GTFISDYSIAMDRIK(C16 diacid)QQDFVNWLLAQR-NH2 [AT390] was tested, and the “CisBio cAMP agonism % Efficacy” value was 4%, the “CisBio cAMP antagonism % inhib” value was 81% and the “CisBio cAMP antagonism IC50” value was 15.9 nM. The “CisBio cAMP antagonism pIC50” value was 7.8, the “DiscoveRx cAMP antagonism % inhib” value was 100% and the “DiscoveRx cAMP antagonism IC50” value was 1 nM. For the same binder, the “DiscoveRx cAMP antagonism log IC50” value was -9.1 log M. With B4 the “CisBio cAMP agonism % Efficacy” value was 0%, the “CisBio cAMP antagonism % inhib” value was 40% and the “CisBio cAMP antagonism IC50” value was 178 nM. The “CisBio cAMP antagonism pIC50” value was 6.8. For [pGlu]GTFISDYSIAMDRIK([AEEA-AEEA-AEEA-γGlu-C18 diacid])QQDFVNWLLAQR-NH2 [AT382], the “CisBio cAMP agonism % Efficacy” value was 0%, the “CisBio cAMP antagonism % inhib” value was 83% and the “CisBio cAMP antagonism IC50” value was 25.1 nM. The “CisBio cAMP antagonism pIC50” value was 7.6, the “DiscoveRx cAMP antagonism % inhib” value was 100% and the “DiscoveRx cAMP antagonism IC50” value was 2 nM. The “DiscoveRx cAMP antagonism log IC50” value was -8.7 log M. For B2, the “CisBio cAMP antagonism pIC50” value was 7.2 and the “DiscoveRx cAMP antagonism log IC50” value was -9.2 log M. For B3, the “CisBio cAMP agonism % Efficacy” value was 8%, the “CisBio cAMP antagonism % inhib” value was 84% and the “CisBio cAMP antagonism IC50” value was 31.6 nM. For the same binder, the “CisBio cAMP antagonism pIC50” value was 7.5, the “DiscoveRx cAMP agonism Emax” value was 9 and the “DiscoveRx cAMP antagonism IC50” value was 16 nM. The “DiscoveRx cAMP antagonism log IC50” value was -7.8 log M.

Target: T1, human GIP receptor
Assay: cell-based or functional assay
Remark: another data set of the same source
In the case of B1, the “cAMP antagonism % inhib” value is reported as 100%, the “cAMP antagonism IC50” value is reported as 9 nM and the “cAMP antagonism log IC50” value is reported as -8.1 log M. In the case of B4, the “cAMP antagonism % inhib” value is reported as 100%, the “cAMP antagonism IC50” value is reported as 528 nM and the “cAMP antagonism log IC50” value is reported as -6.3 log M.
